This passage reports activation of the reporter driven by the GAL4 DNA-binding sites (mammalian two hybrid, luciferase) results from patent US20070111265A1, “Ligands for mineralocorticoid receptor (MR) and methods for screening for or designing MR ligands” (Van Andel Research Institute, priority 2005, published 2007).

The target of assay [1] is VP16-MR LBD (residues 727-984) (human) (UniProt P08235). The assay can be described thus: cell-based or functional assay.
Assay [2] has as its target VP16-MR LBD (K782E) (human) (UniProt P08235). The assay is described as follows: cell-based or functional assay.

Sequence of VP16-MR LBD (K782E) (human) (P08235 727-984 K782E): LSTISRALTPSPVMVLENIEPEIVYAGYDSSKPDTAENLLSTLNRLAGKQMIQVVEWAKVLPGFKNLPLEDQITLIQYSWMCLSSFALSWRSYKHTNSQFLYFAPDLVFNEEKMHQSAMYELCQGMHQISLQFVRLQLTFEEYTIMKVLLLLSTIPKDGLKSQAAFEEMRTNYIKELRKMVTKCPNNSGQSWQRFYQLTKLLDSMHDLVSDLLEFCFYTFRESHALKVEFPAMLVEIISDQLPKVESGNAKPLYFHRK
Sequence of VP16-MR LBD (residues 727-984) (human) (P08235 727-984 limits assumed): as the sequence (P08235 727-984 K782E) above, with E56K counted along it

“Gal4-SRC1-4 (GAL4-DBD fused with SRC1 residues 1240-1441) (from UniProt P04386 1-147; Q15788 1240-1441)”: the activation of the reporter driven by the GAL4 DNA-binding sites (mammalian two hybrid, luciferase) in assay [1] amounted to 7 fold; in assay [2] it was 1.7 fold.
